Results published in publication PMC6895269.

Key:
[1] = test system: Rtf1 HMD74-184 (histone modification domain) (Saccharomyces cerevisiae); assay: EMSA; details: 50 mM Tris-HCl pH 7.5, 150 mM NaCl, 2 mM arginine, 0.01% CHAPS, 0.01% NP-40, 1 uM BSA, 3 nM nucleosome, 30 min on ice, 4-12% Tris-glycine native PAGE
[2] = target: acidic patch mutant X. laevis nucleosome (H2A E61A, E64A, D90A, E92A) (X. laevis); assay: native gel or EMSA; 3 nM nucleosomes with increasing recombinant HMD, 30 min on ice, 50 mM Tris-HCl pH 7.5, 150 mM NaCl, 2 mM arginine, 0.01% CHAPS, 0.01% NP-40, 1 μM BSA; 4-12% native PAGE, SYBR Green; Kd by non-linear least squares regression
[3] = target: wild-type X. laevis nucleosome (X. laevis); assay: as above

acidic patch mutant X. laevis nucleosome (H2A E61A, E64A, D90A, E92A)
Kd ([1]; histone H2A E61A;E64A;D90A;E92A): 250 nM

recombinant HMD_(74-184) (Rtf1 histone modification domain) (from UniProt P53064 74-184) (domain or fragment)
Kd [2]: 250 nM
Kd [3]: 100 nM

wild-type X. laevis nucleosome
Kd ([1]; wild-type histone octamer): 100 nM
